Peak 1 End pH (elution) and Peak 1 start pH (elution) data for 1 substance are collected here from US20230212217A1.

This assay has as its target full domain protein A ligand (immobilised on resin) (UniProt P38507). Put plainly: protein A affinity chromatography, pH gradient elution, POROS MabCapture A Select (Example 5-4).

As to “GLP-1-Fc (from UniProt P01275 98-128) (Fc fusion)”, the Peak 1 End pH (elution) is 3.95 pH and the Peak 1 start pH (elution) was 4.17 pH.
